Measurements as given in article PMC2175296.
Where “and” joins values, the source holds several entries; their conditions need not be identical. Identical values can stand only once.

Target: GST–hEST1A (recombinant full-length human EST1A/SMG6 as N-terminal GST fusion) (human) (UniProt Q86US8)
Experiment: pull-down

UniProt Q86US8, sequence (Q86US8 whole entry, the tested form may be a part): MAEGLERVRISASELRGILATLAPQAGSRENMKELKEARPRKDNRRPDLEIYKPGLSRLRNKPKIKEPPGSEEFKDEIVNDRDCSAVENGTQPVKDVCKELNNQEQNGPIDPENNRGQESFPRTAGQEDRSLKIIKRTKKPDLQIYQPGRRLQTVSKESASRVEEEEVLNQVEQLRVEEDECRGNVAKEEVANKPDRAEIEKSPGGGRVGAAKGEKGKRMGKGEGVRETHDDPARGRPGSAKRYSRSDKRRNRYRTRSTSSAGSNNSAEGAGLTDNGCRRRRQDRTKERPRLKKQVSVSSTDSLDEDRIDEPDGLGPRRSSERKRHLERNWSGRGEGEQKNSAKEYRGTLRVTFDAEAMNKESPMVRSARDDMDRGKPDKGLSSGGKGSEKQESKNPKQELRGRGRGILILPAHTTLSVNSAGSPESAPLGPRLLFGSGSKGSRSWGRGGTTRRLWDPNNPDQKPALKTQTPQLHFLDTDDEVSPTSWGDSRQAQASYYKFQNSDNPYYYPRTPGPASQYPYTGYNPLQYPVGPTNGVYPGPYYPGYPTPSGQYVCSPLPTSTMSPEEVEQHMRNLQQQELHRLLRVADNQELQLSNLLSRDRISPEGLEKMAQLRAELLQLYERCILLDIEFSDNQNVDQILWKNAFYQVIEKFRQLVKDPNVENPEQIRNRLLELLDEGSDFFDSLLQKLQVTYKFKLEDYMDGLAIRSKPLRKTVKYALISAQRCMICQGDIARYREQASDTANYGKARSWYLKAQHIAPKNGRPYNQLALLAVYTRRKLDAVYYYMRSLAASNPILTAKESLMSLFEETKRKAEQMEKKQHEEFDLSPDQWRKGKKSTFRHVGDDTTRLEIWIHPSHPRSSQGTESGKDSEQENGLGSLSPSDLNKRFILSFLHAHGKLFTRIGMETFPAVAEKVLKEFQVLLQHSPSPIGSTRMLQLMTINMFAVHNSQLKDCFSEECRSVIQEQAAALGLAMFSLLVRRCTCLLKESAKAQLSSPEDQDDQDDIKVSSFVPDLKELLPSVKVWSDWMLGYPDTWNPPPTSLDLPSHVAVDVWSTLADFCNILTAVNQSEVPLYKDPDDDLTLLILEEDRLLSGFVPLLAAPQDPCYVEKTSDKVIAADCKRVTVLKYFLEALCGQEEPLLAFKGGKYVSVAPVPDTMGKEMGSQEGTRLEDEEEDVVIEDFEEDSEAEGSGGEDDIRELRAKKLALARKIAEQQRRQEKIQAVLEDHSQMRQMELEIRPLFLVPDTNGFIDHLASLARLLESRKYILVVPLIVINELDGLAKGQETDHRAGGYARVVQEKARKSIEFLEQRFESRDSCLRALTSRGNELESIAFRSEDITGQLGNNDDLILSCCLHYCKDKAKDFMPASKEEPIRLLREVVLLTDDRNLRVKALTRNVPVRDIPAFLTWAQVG

## telomerase, expressed and reconstituted in insect cells or in RRL
  percent of telomerase activity associated with the beads: 10 percent and 30 percent
